According to patent publication US20050042205A1:

Biological target: rat luteal LH/CG receptor (LH/CG-R) expressed from the cloned cDNA (expression vector pCLHR) in transiently transfected human kidney 293 cells (rat) (UniProt P16235)

Substance: human choriogonadotropin, highly purified (CR-123; 12,780 IU/mg) (from UniProt P01215) (ligand)
- EC50 of cAMP production: 0.04 to 0.08 nM
